From paper PMC5402979, “Tissue-specific enhancer repression through molecular integration of cell signaling inputs”
Substitutions are numbered along the chain they refer to.

Tests used:
GST-BowlZF = GST-BowlZF (UniProt Q9VQU9 220-382); assay: EMSA; EMSA, 6% native polyacrylamide, 32P probes; buffers as in cited refs 22 (Bowl) and 26 (HD), not stated here; conditions: protein: recombinant, tags: GST (N-term, pGex4T)
GST-C15HD [1] = target: T1, GST-C15HD (Drosophila melanogaster, UniProt Q4V729 192-292); assay: as above; conditions: protein: recombinant; tags: GST (N-term, pGex4T); label: 32P (Klenow dCTP)
T1 sequence (Q4V729 entry or part of it): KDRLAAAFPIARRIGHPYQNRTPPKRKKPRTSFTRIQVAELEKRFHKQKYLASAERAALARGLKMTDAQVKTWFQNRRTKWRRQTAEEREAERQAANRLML

GST-DllHD = GST-DllHD (UniProt P20009 120-188); assay: EMSA; strictly monomeric; abolished by increasing GST-C15HD; EMSA, 6% native polyacrylamide, 32P probes; buffers as in cited refs 22 (Bowl) and 26 (HD), not stated here; conditions: protein: recombinant; tags: GST (N-term, pGex4T); label: 32P (Klenow dCTP)
Sequence of GST-DllHD (P20009 120-188): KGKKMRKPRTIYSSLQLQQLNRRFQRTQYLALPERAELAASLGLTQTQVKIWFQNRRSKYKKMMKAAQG

GST-C15HD [2] = target: T1, GST-C15HD; assay: EMSA; monomeric and some dimeric complexes; displaces DllHD dose-dependently; EMSA, 6% native polyacrylamide, 32P probes; buffers as in cited refs 22 (Bowl) and 26 (HD), not stated here; conditions: protein: recombinant; tags: GST (N-term, pGex4T); label: 32P (Klenow dCTP)
GST-C15HD [3] = target: T1, GST-C15HD; assay: EMSA; up to three complexes; EMSA, 6% native polyacrylamide, 32P probes; buffers as in cited refs 22 (Bowl) and 26 (HD), not stated here; conditions: protein: recombinant; tags: GST (N-term, pGex4T); label: 32P (Klenow dCTP)
GST-C15HD [4] = target: T1, GST-C15HD; assay: EMSA; equivalent to CR1; EMSA, 6% native polyacrylamide, 32P probes; buffers as in cited refs 22 (Bowl) and 26 (HD), not stated here; conditions: protein: recombinant; tags: GST (N-term, pGex4T); label: 32P (Klenow dCTP)

Sequence of GST-BowlZF (Q9VQU9 220-382): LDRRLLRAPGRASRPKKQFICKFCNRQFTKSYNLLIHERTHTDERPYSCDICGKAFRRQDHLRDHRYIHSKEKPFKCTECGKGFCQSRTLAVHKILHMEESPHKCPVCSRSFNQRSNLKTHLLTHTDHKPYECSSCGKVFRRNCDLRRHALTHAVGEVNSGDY

B1: 1Lm (dsDNA)
DNA 1: TACAATTTAAGCCGTAAAGC
DNA 2: GCTTTACGGCTTAAATTGTA
B1: no binding (GST-BowlZF; label: 32P (Klenow dCTP)).

B2: 1Sm (dsDNA)
DNA 1: TACAATTTAAGCCGTC
DNA 2: GACGGCTTAAATTGTA
B2: no binding (GST-BowlZF; label: 32P (Klenow dCTP)).

B3: 1L+ (CR2 large) (dsDNA)
DNA 1: TACAACAGAAGCCGTCTGGC
DNA 2: GCCAGACGGCTTCTGTTGTA
B3: binds (GST-BowlZF; label: 32P (Klenow dCTP)).

B4: DBS (Dll-binding sequence) (dsDNA)
DNA 1: TCAAAATTAATGGTAATAAGCA
DNA 2: TGCTTATTACCATTAATTTTGA
B4: no binding (GST-C15HD [1]).

B5: OddZF BS (dsDNA)
DNA 1: GCATACAGTAGCACTGATAT
DNA 2: ATATCAGTGCTACTGTATGC
B5: binds (GST-BowlZF; label: 32P 5' end (Klenow, one dCTP)).

B6: CR1S3+4+6m (dsDNA)
DNA 1: TTAAGCTGCAAATCGCGGCGGGCGCCCCGATCACGCCGGGCGGTTCGGGATTAATGGTAATAAGCAGTT
DNA 2: AACTGCTTATTACCATTAATCCCGAACCGCCCGGCGTGATCGGGGCGCCCGCCGCGATTTGCAGCTTAA
B6: no binding (GST-C15HD [1]).

B7: 2Sm (dsDNA)
DNA 1: AAATTTTAGTCCCAG
DNA 2: CTGGGACTAAAATTT
B7: no binding (GST-BowlZF; label: 32P (Klenow dCTP)).

B8: CR1 3' half (dsDNA)
DNA 1: CACGAAAAACAATTCAAAATTAATGGTAATAAGCAGTT
DNA 2: AACTGCTTATTACCATTAATTTTGAATTGTTTTTCGTG
B8: binds (GST-DllHD); binds (GST-C15HD [2]).

B9: CR1 (dsDNA)
DNA 1: TTAAGCTGCAAATCGCGGCAATCGTTAAGATCACGAAAAACAATTCAAAATTAATGGTAATAAGCAGTT
DNA 2: AACTGCTTATTACCATTAATTTTGAATTGTTTTTCGTGATCTTAACGATTGCCGCGATTTGCAGCTTAA
B9: binds (GST-C15HD [3]).

B10: CR1DBSm (dsDNA)
DNA 1: B9 DNA 1 with A50C, T51C, T52C, A53C, T58C, A59C, A60C, T61C
DNA 2: B9 DNA 2 with A9G, T10G, T11G, A12G, T17G, A18G, A19G, T20G
B10: binds (GST-C15HD [4]).
